Test results: publication PMC5683654, “Interaction between the flagellar pocket collar and the hook complex via a novel microtubule-binding protein in Trypanosoma brucei” (PLoS Pathogens, 2017)

How the values were obtained:
[1] = molecular target: taxol-stabilised microtubules (polymerised tubulin); assay: co-sedimentation; microtubule binding assay; increasing concentrations of FPC4 fragment with 7.2 μM polymerised tubulin in PEMD, 1 h at 22°C, 16,100 g; pellets and supernatants on SDS-PAGE
[2] = molecular target: BILBO1-Edge-Mut (K60A/K62A), bacterially expressed BILBO1-NTD’ (Trypanosoma brucei); assay: ITC; 25°C, 20 mM Tris-HCl pH 8.0, 50 mM NaCl; 50 μM BILBO1-NTD’ in the cell titrated with 600 μM FPC4-B1BD; one-site binding model
FPC4-B1BD (aa 357–440) = molecular target: T1, FPC4-B1BD (aa 357–440) (Trypanosoma brucei, UniProt Q57YN8 357-440); assay: ITC
T1 chain: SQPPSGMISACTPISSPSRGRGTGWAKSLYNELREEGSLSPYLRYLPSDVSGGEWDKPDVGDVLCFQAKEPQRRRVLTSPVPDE

BILBO1-NTD’ (aa 1–120) [3] = molecular target: T2, BILBO1-NTD’ (aa 1–120) (Trypanosoma brucei, UniProt Q382W6 1-120); assay: ITC; 25°C, 20 mM Tris-HCl pH 8.0, 50 mM NaCl; 50 μM BILBO1-NTD’ in the cell titrated with 600 μM FPC4-B1BD; one-site binding model; conditions: both partners purified
T2 construct: BILBO1 of Trypanosoma brucei, Tb927.11.12150, aa 1-120, cloned into pET-15b; also called TbBILBO1-NTD’; 6His-BILBO1-NTD’; source: E. coli, purified (Ni-HiTrap, tag removed with thrombin, Superdex-200); not shown: His6, N-terminal, cleaved
T2 sequence (looked up): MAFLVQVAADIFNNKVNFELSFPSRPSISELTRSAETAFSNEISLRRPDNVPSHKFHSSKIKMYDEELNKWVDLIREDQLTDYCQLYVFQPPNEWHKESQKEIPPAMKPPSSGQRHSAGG

BILBO1-NTD’ (aa 1–120) [4] = molecular target: T2, BILBO1-NTD’ (aa 1–120); assay: SEC-MALS; static light scattering on Superdex 200 10/300 GL; purified proteins mixed at molar ratio ~1:2, total 2 mg/ml, 30 min at room temperature; conditions: both partners purified

Question: Which saturating concentration [1] does the source give for FPC4-1-260-6His (domain or fragment) here?
Answer: The saturating concentration was 5.6 µM.

Question: How did the Kd [2] turn out when “FPC4-B1BD (aa 357–440) (from UniProt Q57YN8 357-440) (domain or fragment)” was run?
Answer: The Kd was 18 µM.

B1: BILBO1-NTD’ (aa 1–120) (domain or fragment)
chain: MAFLVQVAADIFNNKVNFELSFPSRPSISELTRSAETAFSNEISLRRPDNVPSHKFHSSKIKMYDEELNKWVDLIREDQLTDYCQLYVFQPPNEWHKESQKEIPPAMKPPSSGQRHSAGG
Question: B1 was tested. Which Kd (FPC4-B1BD (aa 357–440)) did it give?
Answer: The Kd was 5.4 µM.

B2: FPC4-B1BD (aa 357–440) (domain or fragment, Trypanosoma brucei, UniProt Q57YN8 357-440, looked up)
chain: SQPPSGMISACTPISSPSRGRGTGWAKSLYNELREEGSLSPYLRYLPSDVSGGEWDKPDVGDVLCFQAKEPQRRRVLTSPVPDE
notes: FPC4 of Trypanosoma brucei, Tb927.8.6370, aa 357-440, cloned into the custom vector MalpET; also called TbFPC4-B1BD; MBP-tagged FPC4-B1BD; source: E. coli, purified (Ni-HiTrap, tag removed with TEV, Superdex-200); not shown: MBP, N-terminal, cleaved; His10, N-terminal, cleaved
Question: What does the source list for B2?
Answer: Kd (BILBO1-NTD’ (aa 1–120) [3]): ~5 µM; stoichiometry N (BILBO1-NTD’ (aa 1–120) [4]): 1
